According to patent US20210301012A1 (UCB, published 2021):

B1: gp80 (receptor, human, UniProt P08887 20-358, looked up)
chain: LAPRRCPAQEVARGVLTSLPGDSVTLTCPGVEPEDNATVHWVLRKPAAGSHPSRWAGMGRRLLLRSVQLHDSGNYSCYRAGRPAGTVHLLVDVPPEEPQLSCFRKSPLSNVVCEWGPRSTPSLTTKAVLLVRKFQNSPAEDFQEPCQYSQESQKFSCQLAVPEGDSSFYIVSMCVASSVGSKFSKTQTFQGCGILQPDPPANITVTAVARNPRWLSVTWQDPHSWNSSFYRLRFELRYRAERSKTFTTWMVKDLQHHCVIHDAWSGLRHVVQLRAQEEFGQGEWSEWSPEAMGTPWTESRSPPAENEVSTPMQALTTNKDDDNILFRDSANATSLPVQD
notes: Soluble gp80 as used in ELISA, MST, Octet, SEC and SPR; In part of the ELISA work the methods name gp80-hscFc (gp80 M1-P322, C211A, C277A, fused to single chain human IgG Fc); also called IL-6 receptor; CD126

Tests used:
[1] = molecular target: T1, IL-6 (human, UniProt P05231 28-212); test: SPR, IL-6 immobilised, gp80 injected, with VHH6 against without VHH6
T1 construct: IL-6 as used in ELISA, MST, Octet, SEC and SPR; also called interleukin-6; hIL-6
Excerpt: For brevity, FIGS. 10a and b only report the SPR sensorgrams for IL-6 immobilization.

[2] = molecular target: T2, IL-6-gp80 complex (human, UniProt P05231 28-212; P08887 20-358); test: MicroScale Thermophoresis, VHH6 titrated into gp80-NT647 + IL-6 (panel gp80-NT647+IL-6+VHH6)
T2 construct: Non-covalent transient heterodimer formed by mixing IL-6 and gp80
Excerpt: (§1) (a) ELISA: FusionIL-6, IL-6 or gp80 were immobilized overnight on plates. […] (b) MicroScale Thermophoresis (MST): IL-6 and gp80 were labelled with NT647.

[3] = molecular target: T2, IL-6-gp80 complex; test: SPR (BIAcore T200, 25 C), VHH6 immobilised, gp80 titrated (0-250 nM) with IL-6 constant at 2 uM
Protocol: (§2) Quantitative SPR analysis was carried out using a BIAcore T200 (GE Healthcare). The binding measurements were performed at a flow rate of 100 μl/min. The protein of interest was injected for 180 s and the dissociation was monitored for 360 s. […] The sensor surface was regenerated with […] MgCl₂. Background subtraction binding curves were analyzed using the T200 evaluation software (version 1.0) following standard procedures. Due to the complexity of the interactions studied, the data analysis was limited to the most informative, in this case kd parameter, which was determined by fitting a single exponential decay model to dissociation data within 360 s range.

[4] = molecular target: T2, IL-6-gp80 complex; test: MicroScale Thermophoresis, VHH6 titrated into IL-6-NT647 + gp80 (panel IL-6-NT647+gp80+VHH6)
Excerpt: as §1

[5] = molecular target: T1, IL-6; test: ELISA, plate coated with IL-6, absorbance 630 nm
Protocol: ELISA—IL-6, gp80 and FusionIL-6 used in ELISA to coat plates were diluted to a final concentration of […] in carbonate buffer (0.16% Na₂CO₃ and 0.3% NaHCO₃ in H₂O). Coated plates were incubated at 4° C. overnight. The following day, the plates were washed twice in PBST, blocked in PBS/5% BSA for 2 h at RT, and again washed twice in PBST. For preliminary screening, either supernatant from HEK cells or purified VHHs was added. Anti-llama-HRP or anti-His-HRP antibody was added for 1 h at RT. Afterwards the plates were washed twice with PBST and developed with TMB substrate. The reaction was stopped by adding NaF. […]

[6] = molecular target: T2, IL-6-gp80 complex; test: SPR (BIAcore 3000), His-tagged VHH captured from supernatant on Ni-NTA chip, equimolar IL-6 + gp80 (50 nM each) injected
Protocol: (§3) SPR analysis was performed using a BIAcore 3000 (GE Healthcare). […] An equimolar mixture of IL-6 and gp80 (50 nM each) was injected for 300 s at a flow rate of 10 μl/min followed by a dissociation phase of 300 s. At the end of each cycle the chip surface was regenerated by injection of 350 mM EDTA (2×10 μl).
(§4) To assess the contributions of the side chains to binding, single alanine substitutions at positions 27, 32, 74, 101 and 113, and double alanine substitutions at positions 27/32, 74/101 and 113/101 were generated. […] In a three-component system, it is not possible to calculate meaningful association rate constants. However, the dissociation rate constants, being concentration independent, were determined.

[7] = molecular target: B1; test: ELISA, plate coated with gp80, absorbance 630 nm
[8] = molecular target: T2, IL-6-gp80 complex; test: SPR (BIAcore 3000), His-tagged VHH captured from supernatant on Ni-NTA chip, equimolar IL-6 + gp80 (50 nM each) injected; remark: listed apart in the source
Protocol: as §3, §4

[9] = molecular target: T2, IL-6-gp80 complex; test: SPR (BIAcore T200, 25 C), VHH6 immobilised, IL-6 titrated (0-250 nM) with gp80 constant at 2 uM
Protocol: as §2

[10] = molecular target: T2, IL-6-gp80 complex; test: SPR, VHH captured on Ni-NTA chip, IL-6 + gp80 injected; reference VHH6
Protocol: as §3, §4

Binder | koff [6] | koff [8] | other results
B1 |  |  | fold reduction of koff by VHH6 [1]: 225 fold
VHH6 (VHH, Camel single domain antibody expressed in Expi-HEK cells; The His tag was used for capture in Octet and in the NTA-chip SPR; also called wtVHH6; VHH6-6His; not shown: C-terminal TEV site and 6His tag (VHH6-6His)) VHH: DVQFVESGGGSVHAGGSLRLNCATSGYIYSTYCMGWFRQAPGKEREGVAHIYTNSGRTYYADSVKGRFTISQDNAKNTVYLQMNSLKPEDTAIYYCAARPSIRCASFSATEYKDWGQGTQVTVSS | 0.00036 s⁻¹ | 0.00036 s⁻¹ | EC50 (read off the curve) [2]: ~60 nM; koff [3]: 0.000375 s⁻¹; EC50 (read off the curve) [4]: ~30 nM; binding result [5]: no binding; binding result [7]: no binding; koff [9]: 0.000309 s⁻¹
VHH6 Y27A Y32A (VHH, Tested as ExpiHEK supernatant; also called 27/32 double mutant; not shown: C-terminal His tag (captured on NTA chip)) VHH: DVQFVESGGGSVHAGGSLRLNCATSGAIYSTACMGWFRQAPGKEREGVAHIYTNSGRTYYADSVKGRFTISQDNAKNTVYLQMNSLKPEDTAIYYCAARPSIRCASFSATEYKDWGQGTQVTVSS |  | 0.00043 s⁻¹ | 
VHH6 N74A (VHH, Tested as ExpiHEK supernatant; not shown: C-terminal His tag (captured on NTA chip)) VHH: DVQFVESGGGSVHAGGSLRLNCATSGYIYSTYCMGWFRQAPGKEREGVAHIYTNSGRTYYADSVKGRFTISQDAAKNTVYLQMNSLKPEDTAIYYCAARPSIRCASFSATEYKDWGQGTQVTVSS | 0.00015 s⁻¹ |  | 
VHH6 S101A (VHH, Tested as ExpiHEK supernatant; not shown: C-terminal His tag (captured on NTA chip)) VHH: DVQFVESGGGSVHAGGSLRLNCATSGYIYSTYCMGWFRQAPGKEREGVAHIYTNSGRTYYADSVKGRFTISQDNAKNTVYLQMNSLKPEDTAIYYCAARPAIRCASFSATEYKDWGQGTQVTVSS | 0.00039 s⁻¹ |  | 
VHH6 K113A S101A (VHH, Tested as ExpiHEK supernatant; also called Ser101Ala/Lys113Ala; 113/101 double mutant; not shown: C-terminal His tag (captured on NTA chip)) VHH: DVQFVESGGGSVHAGGSLRLNCATSGYIYSTYCMGWFRQAPGKEREGVAHIYTNSGRTYYADSVKGRFTISQDNAKNTVYLQMNSLKPEDTAIYYCAARPAIRCASFSATEYADWGQGTQVTVSS |  | 0.00143 s⁻¹ | fold increase of dissociation rate against VHH6 [10]: 4.3 fold
VHH6 Y27A (VHH, Tested as ExpiHEK supernatant; not shown: C-terminal His tag (captured on NTA chip)) VHH: DVQFVESGGGSVHAGGSLRLNCATSGAIYSTYCMGWFRQAPGKEREGVAHIYTNSGRTYYADSVKGRFTISQDNAKNTVYLQMNSLKPEDTAIYYCAARPSIRCASFSATEYKDWGQGTQVTVSS | 0.0007 s⁻¹ |  | fold increase of dissociation rate against VHH6 [10]: 1.9 fold
VHH6 K113A (VHH, Tested as ExpiHEK supernatant; not shown: C-terminal His tag (captured on NTA chip)) VHH: DVQFVESGGGSVHAGGSLRLNCATSGYIYSTYCMGWFRQAPGKEREGVAHIYTNSGRTYYADSVKGRFTISQDNAKNTVYLQMNSLKPEDTAIYYCAARPSIRCASFSATEYADWGQGTQVTVSS | 0.00026 s⁻¹ |  | 
VHH6 N74A S101A (VHH, Tested as ExpiHEK supernatant; also called Asn74Ala/Ser101Ala; 74/101 double mutant; not shown: C-terminal His tag (captured on NTA chip)) VHH: DVQFVESGGGSVHAGGSLRLNCATSGYIYSTYCMGWFRQAPGKEREGVAHIYTNSGRTYYADSVKGRFTISQDAAKNTVYLQMNSLKPEDTAIYYCAARPAIRCASFSATEYKDWGQGTQVTVSS |  | 0.00135 s⁻¹ | fold increase of dissociation rate against VHH6 [10]: 3.8 fold
VHH6 Y32A (VHH, Tested as ExpiHEK supernatant; not shown: C-terminal His tag (captured on NTA chip)) VHH: DVQFVESGGGSVHAGGSLRLNCATSGYIYSTACMGWFRQAPGKEREGVAHIYTNSGRTYYADSVKGRFTISQDNAKNTVYLQMNSLKPEDTAIYYCAARPSIRCASFSATEYKDWGQGTQVTVSS | 0.0003 s⁻¹ |  | 
VHH6 K113S S101A (VHH, The text describes only alanine substitutions; not shown: C-terminal His tag (captured on NTA chip)) VHH: DVQFVESGGGSVHAGGSLRLNCATSGYIYSTYCMGWFRQAPGKEREGVAHIYTNSGRTYYADSVKGRFTISQDNAKNTVYLQMNSLKPEDTAIYYCAARPAIRCASFSATEYSDWGQGTQVTVSS |  | 0.00164 s⁻¹ | 
